{"source": "patent US20030077318A1", "note": "pKd: −log10 of the molar value."}
{"biological_target": "soluble H-2K^b (K^bsol), heterodimer of truncated K^b heavy chain and murine β-2 microglobulin, purified empty from Drosophila cells (murine) (UniProt P01901)", "experiment": "competitive RIA against [^125I]VSV-8 on K^bsol, P30 gel filtration, 23° C."}
{"substance": "OVA-10C (peptide)", "pKd": 7.85}
{"substance": "OVA-10N (peptide)", "pKd": 6.55}
{"substance": "OVA-8 (peptide)", "pKd": 8.39}
{"substance": "OVA-9C (peptide)", "pKd": 7.96}
